Laboratory results taken from US12077599 (SEOUL NATIONAL UNIVERSITY R AND DB FOUNDATION NATIONAL …, dated 2024).

Columns and labels:
[1] = biological target: T1, GRP75 (Enzo Life Sciences) (UniProt P38646 47-679, limits assumed); experiment: phage ELISA
T1 construct: Purchased protein coated in ELISA
Experimental: Each codon in the bracket in the forward primer sequence of the second fragment was replaced with NNK. Subsequently, these PCR fragments were purified and subjected to overlap extension PCR. The overlap extension PCR was performed using 100 ng PCR fragments each by after preparatory modification of DNA at 95° C. for 5 minutes, 30 cycles of DNA modification at 95° C. for 30 seconds, combination of primers at 56° C. for 30 seconds, and elongation at 72° C. for 30 seconds, and then it was terminated after incubation for 5 minutes. The obtained overlap extension PCR products were purified and subcloned into a pComb3XSS phagemid vector using Sfi I restriction enzyme and transformed into *Escherichia coli* [See C. F. Barbas, Phage Display: a Laboratory Manual, Cold Spring Harbor Laboratory Press, Cold Spring Harbor, N Y, 2001]. From the output titer plate, phages were rescued from randomly selected colonies and subjected to ELISA [See C. F. Barbas, Phage Display: a Laboratory Manual, Cold Spring Harbor Laboratory Press, Cold Spring Harbor, N Y, 2001].
Example 3. Screening of Modified scFv with Enhanced Specificity from the HCDR3 Site-Directed Mutagenesis Library Based on the result of Example 2, to generate monoclonal antibody clones nonreactive to Hsp70 but reactive to ROS1, HCDR3 site-directed mutagenesis libraries were constructed. […]

[2] = biological target: T1, GRP75 (Enzo Life Sciences); experiment: ELISA, GRP75 coated, detection with HRP anti-rabbit IgG
Experimental: Microtiter plates (Costar, Cambridge, MA, USA) were coated with 100 ng of a recombinant ROS1 (37-290 amino acids)-Cκ fusion protein, an irrelevant protein (recombinant PSA (prostate cancer specific antigen; NP_001025218.1))-Cκ fusion protein the synthetic peptide ([…]-[…])-BSA conjugate or GRP75 (Enzo Life Sciences, Farmingdale, NY, USA) dissolved in coating buffer (0.1 M sodium bicarbonate, pH 8.6). After blocking, 3B20-rFc or 3B20-G1K (the first amino acid G of HCDR3 of 3B20 was substituted to K)-rFc fusion proteins were added. The amounts of bound antibodies were determined using a horseradish peroxidase (HRP)-conjugated goat anti-rabbit IgG antibody (Abcam, Cambridge Science Park, Cambridge, UK) and 2,20-azinobis [3-ethylbenzothiazoline-6-sulfonic acid]-diammonium salt (ABTS) substrate solution (Amresco LLC, Solon, OH, USA). All experiments were performed in triplicate.
To test the specificity of 3B20-GlK, a recombinant 3B20-G1K scFv-Cκ fusion protein was prepared. Then ELISA, immunoblot, and immunoprecipitation analyses were performed in parallel with 3B20 for the prepared fusion protein. […] After blocking, the 3B20-rFc fusion protein or 3B20-G1K-rFc fusion protein was added to the well in a concentration of 0 to 2000 ng/ml, and the amount of the fusion protein combined to the well was measured by ELISA using the HRP-conjugated anti-rabbit IgG antibody and ABTS solution. […]

T1 sequence (P38646 47-679 limits assumed): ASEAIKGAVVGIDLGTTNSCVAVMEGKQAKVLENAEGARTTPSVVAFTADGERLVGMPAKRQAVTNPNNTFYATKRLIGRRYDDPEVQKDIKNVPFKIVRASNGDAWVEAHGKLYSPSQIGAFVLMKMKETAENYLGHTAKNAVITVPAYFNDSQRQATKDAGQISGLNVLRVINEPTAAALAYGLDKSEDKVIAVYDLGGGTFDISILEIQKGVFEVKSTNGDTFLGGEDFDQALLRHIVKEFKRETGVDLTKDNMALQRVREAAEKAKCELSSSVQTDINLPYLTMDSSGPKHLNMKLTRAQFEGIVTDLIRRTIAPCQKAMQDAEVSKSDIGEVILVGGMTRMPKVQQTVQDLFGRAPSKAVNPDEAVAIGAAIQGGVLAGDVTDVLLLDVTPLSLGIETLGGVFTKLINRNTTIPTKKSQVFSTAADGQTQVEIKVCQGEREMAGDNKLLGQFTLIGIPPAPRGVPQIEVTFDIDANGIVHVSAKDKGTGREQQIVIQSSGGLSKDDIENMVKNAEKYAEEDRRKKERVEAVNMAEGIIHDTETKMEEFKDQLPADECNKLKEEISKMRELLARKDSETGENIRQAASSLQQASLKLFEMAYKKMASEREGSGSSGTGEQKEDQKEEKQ

B1: 3B20-G1K scFv (phage-displayed clone) (scFv)
scFv: LTQPSSVSANLGGTVKITCSGGSYGYGWYQQKAPGSAPATVIYDNTNRPSDIPSRFSGSKSGSTGTLTITGVQVEDEAVYYCGSADSSSIATFGAGTTLTVLGQSSRSSGGGGSSGGGGSAVTLDESGGGLQTPGGTLSLVCKASGFSFSDRGMHWMRQAPGKGLEYVGAISGDGYITHYGAAVKGRATISRDNGQSTVRLQLNNLRAEDTATYYCTRKGGGNIDAWGHGTEVIVSSTS
notes: Clone from the HCDR3 first-residue NNK library in pComb3XSS, tested as phage in ELISA; also called 3B20-GIK
[1]
  binding result: no binding

B2: 3B20-G1K scFv-rFc fusion protein (Fc fusion)
scFv: LTQPSSVSANLGGTVKITCSGGSYGYGWYQQKAPGSAPATVIYDNTNRPSDIPSRFSGSKSGSTGTLTITGVQVEDEAVYYCGSADSSSIATFGAGTTLTVLGQSSRSSGGGGSSGGGGSAVTLDESGGGLQTPGGTLSLVCKASGFSFSDRGMHWMRQAPGKGLEYVGAISGDGYITHYGAAVKGRATISRDNGQSTVRLQLNNLRAEDTATYYCTRKGGGNIDAWGHGTEVIVSSTS
notes: also called 3B20-G1K-rFc; 3B20(scFv)-G1K-rFc fusion protein; not shown: rabbit antibody Fc (rFc)
[2]
  binding result: no binding (tested: 2 µg/mL)
